This is an account of results in patent CN106866820A (AB-MAT MEDICINE TECH (SHANGHAI) CO LTD, dated 2017).

Experiment [1] deals with T1, 人角蛋白18(CK18), endogenous protein in PC9 cell lysate / membrane protein extract (human, UniProt P05783 2-430).
T1 construct: Endogenous protein in lysate or extract; also called 48KD条带
T1 sequence (looked up): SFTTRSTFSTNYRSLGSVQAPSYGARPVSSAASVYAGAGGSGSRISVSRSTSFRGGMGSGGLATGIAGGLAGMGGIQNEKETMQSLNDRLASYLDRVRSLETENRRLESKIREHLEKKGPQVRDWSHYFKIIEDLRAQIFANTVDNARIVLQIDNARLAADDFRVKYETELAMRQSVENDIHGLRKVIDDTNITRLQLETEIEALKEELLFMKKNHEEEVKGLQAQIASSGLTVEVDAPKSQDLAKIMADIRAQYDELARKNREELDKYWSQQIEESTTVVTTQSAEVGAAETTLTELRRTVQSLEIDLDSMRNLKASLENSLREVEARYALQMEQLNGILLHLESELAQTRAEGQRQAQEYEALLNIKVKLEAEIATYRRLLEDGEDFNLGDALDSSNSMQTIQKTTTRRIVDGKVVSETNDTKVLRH
As to the kind of experiment: Western blot on PC9 whole-cell lysate, antibody diluted 1:1000 and 1:2000.

Experiment [2] addresses T2, 人角蛋白18(CK18), on PC9 human lung cancer cells (human, UniProt P05783 2-430).
T2 construct: whole, on cells; Endogenous CK18 on non-permeabilised PFA-fixed PC9 cells (IF) or live PC-9 cells (capture); also called human keratin 18; cytokeratin 18
T2 sequence (looked up): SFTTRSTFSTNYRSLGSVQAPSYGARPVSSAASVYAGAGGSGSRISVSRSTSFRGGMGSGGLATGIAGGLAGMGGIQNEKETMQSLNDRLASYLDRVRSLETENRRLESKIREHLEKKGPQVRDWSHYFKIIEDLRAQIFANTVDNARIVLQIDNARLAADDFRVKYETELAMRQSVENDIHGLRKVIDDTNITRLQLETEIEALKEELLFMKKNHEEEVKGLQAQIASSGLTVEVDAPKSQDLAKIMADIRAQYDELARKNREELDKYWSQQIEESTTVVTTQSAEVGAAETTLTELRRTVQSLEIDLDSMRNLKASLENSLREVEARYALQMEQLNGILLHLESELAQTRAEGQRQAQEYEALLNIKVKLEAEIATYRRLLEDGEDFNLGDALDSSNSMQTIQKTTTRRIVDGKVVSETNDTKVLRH
As to the kind of experiment: immunofluorescence on PFA-fixed non-permeabilised PC9 cells, antibody 1:1000, FITC goat anti-mouse secondary.

B1: anti-CK18(克隆号1P1)抗体 (antibody, V domains shown)
VH: EVQLQESGPSLVKPSQTLSLTCSVTGDSFTSGYWNWIRKFPGNKLEYMGYISYSGNCYYNPSLKSRISITRDTSKNQYYLQMNSVTTEDTATYFCARASAYYYGSFYDYAMDYWGQGTSVTVSS
VL: DIVMTQSQKFMSTSVGDRVSITCKASQNVDTAVAWYQQKPGQSPKLLIYSASNRFPGVPDRFTGSGSGTDFTLTISNMQSEDLADYFCQQYSSYPFTFGSGTKLEIK
notes: also called anti-CK18 (clone 1P1); 克隆号1P1 anti-CK18抗体
With B1, the binding result in experiment [1] and in experiment [2] was “binds” in each case.
